Reference: PMC9481697

What was measured:
[1] = biological target: FlaA (TDE1712), flagellar filament sheath protein of Treponema denticola (Treponema denticola ATCC 35405); assay: isolation of native flagellar filaments, 2D gel electrophoresis with densitometry and immunoblot
[2] = biological target: FlaA (TDE1712), flagellar filament sheath protein of Treponema denticola (Treponema denticola ATCC 35405); assay: isolation of native flagellar filaments, 2D gel electrophoresis with densitometry; periplasmic flagella isolated from the ΔflaB3 mutant; 2D gels, Coomassie staining, densitometry; ratios relative to FlaA
[3] = biological target: FlaA (TDE1712), flagellar filament sheath protein of Treponema denticola (Treponema denticola ATCC 35405); assay: isolation of native flagellar filaments, 2D gel electrophoresis with densitometry; periplasmic flagella isolated from the ΔflaB2 mutant; 2D gels, Coomassie staining, densitometry; ratios relative to FlaA
[4] = biological target: FlaA (TDE1712), flagellar filament sheath protein of Treponema denticola (Treponema denticola ATCC 35405); assay: isolation of native flagellar filaments, 2D gel electrophoresis with densitometry; periplasmic flagella isolated from the ΔflaB1 mutant; 2D gels, Coomassie staining, densitometry; ratios relative to FlaA

Substance | stoichiometry relative to FlaA in isolated filaments (ratio relative to FlaA) [1] | stoichiometry relative to FlaA in isolated filaments (ratio relative to FlaA) [2] | stoichiometry relative to FlaA in isolated filaments (ratio relative to FlaA) [3] | stoichiometry relative to FlaA in isolated filaments (ratio relative to FlaA) [4]
FlaB1 (TDE1477), flagellar filament core flagellin of Treponema denticola (from UniProt Q73MN1 1-286) (natural protein) | 0.71 | 1.12 | 1.04 | –
FlaB2 (TDE1004), flagellar filament core flagellin of Treponema denticola (from UniProt Q73NZ6 1-286) (natural protein) | 0.61 | 0.36 | – | 0.5
FlaB3 (TDE1475), flagellar filament core flagellin of Treponema denticola (from UniProt Q73MN3 1-285) (natural protein) | 0.18 | – | 0.38 | 0.94
